Laboratory results as given in the supplement of paper PMC7125110.
± gives the standard error. For part of these data: Fewer inactive variants are shown than the library holds.

B1: glmS ribozyme (parent)
chain: AUAAAAGCGCCAGAACUACAGAAAUGUAGUUGACGAGGAGGAGGUUUAUCGAAUUUUCGGCGGAUGCCUCCAAA

Tests used:
Settings in all cases: with glucosamine-6-phosphate
glucosamine-6-phosphate [1] = variants of: B1; assay: kcat; higher = faster cleavage; RNA array
Outline: (§1)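 E. coli RNA polymerase transcribed barcoded ribozyme variants in situ on sequenced MiSeq chips, which were tracked via a hybridised Cy3 probe at 37 °C. Tiles were imaged over ~14 h after glucosamine-6-phosphate (40 μM to 10 mM) in HEPES/KCl/Mg(OAc)2 buffer was flowed in. Normalised per-tile medians were fit to one- or two-exponential decays for kobs, and kcat and KM came from weighted Michaelis–Menten fits.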

glucosamine-6-phosphate [2] = variants of: B1; assay: KM; higher = weaker cofactor use; RNA array
Outline: as §1

glucosamine-6-phosphate [3] = variants of: B1; assay: self-cleavage kobs at 40 uM GlcN6P; higher = faster cleavage; RNA array
Outline: as §1

glucosamine-6-phosphate [4] = variants of: B1; assay: self-cleavage kobs at 160 uM GlcN6P; higher = faster cleavage; RNA array
Outline: as §1

glucosamine-6-phosphate [5] = variants of: B1; assay: self-cleavage kobs at 640 uM GlcN6P; higher = faster cleavage; RNA array
Outline: as §1

glucosamine-6-phosphate [6] = variants of: B1; assay: self-cleavage kobs at 2500 uM GlcN6P; higher = faster cleavage; RNA array
Outline: as §1

glucosamine-6-phosphate [7] = variants of: B1; assay: self-cleavage kobs at 10000 uM GlcN6P; higher = faster cleavage; RNA array
Outline: as §1

| Variant | kcat (glucosamine-6-phosphate [1]) [s⁻¹] | KM (glucosamine-6-phosphate [2]) [µM] | self-cleavage kobs at 40 uM GlcN6P (glucosamine-6-phosphate [3]) [s⁻¹] | self-cleavage kobs at 160 uM GlcN6P (glucosamine-6-phosphate [4]) [s⁻¹] | self-cleavage kobs at 640 uM GlcN6P (glucosamine-6-phosphate [5]) [s⁻¹] | self-cleavage kobs at 2500 uM GlcN6P (glucosamine-6-phosphate [6]) [s⁻¹] | self-cleavage kobs at 10000 uM GlcN6P (glucosamine-6-phosphate [7]) [s⁻¹] |
| --- | --- | --- | --- | --- | --- | --- | --- |
| A53C | 0.0162 ± 0.0036 | 2870 ± 790 | 0.000261 ± 5.6e-06 | 0.000713 ± 2.4e-05 | 0.00273 ± 6.9e-05 | 0.00834 ± 0.0003 | 0.0126 ± 0.00041 |
| G32U A36C | < 1e-05 | – | – | – | – | < 1e-05 | < 1e-05 |
| U56A A64G | 0.0109 ± 0.0032 | 1640 ± 680 | 0.00036 ± 5.4e-05 | 0.000983 ± 0.00014 | 0.0025 ± 0.00037 | 0.00654 ± 0.00084 | 0.0123 ± 0.0025 |
| A14G G43A | 0.000321 ± 4.1e-05 | 4730 ± 1200 | < 1e-05 | – | 4.36e-05 ± 1.3e-05 | 0.000101 ± 2.2e-05 | 0.000222 ± 3.1e-05 |
| C16U U54C U69C | 0.0043 ± 0.0021 | – | 0.000216 ± 7.7e-05 | – | 0.000965 ± 0.00017 | 0.00258 ± 0.00059 | 0.00361 ± 0.0013 |
| G13A U31A | 0.00146 ± 4.2e-05 | 9800 ± 410 | – | – | 9.06e-05 ± 1.9e-05 | 0.000292 ± 6.9e-05 | 0.00074 ± 0.0001 |
| A52U U65A U69C | 1.13e-05 ± 8.7e-07 | 1400 ± 420 | – | – | – | – | – |
| G40A U55C | 0.0017 ± 0.00029 | 1980 ± 650 | 4.24e-05 ± 1.5e-05 | – | 0.00035 ± 0.0001 | 0.00119 ± 0.00036 | 0.0014 ± 0.00025 |
| A14U A36U | < 1e-05 | – | – | < 1e-05 | – | < 1e-05 | < 1e-05 |
| A36U G66A | < 1e-05 | – | – | < 1e-05 | – | – | – |
| G51A C70A | 2.99e-05 ± 7.1e-06 | – | – | – | – | 3.24e-05 ± 1.5e-05 | – |
| C50A G59U | < 1e-05 | 181 ± 24 | < 1e-05 | < 1e-05 | < 1e-05 | – | < 1e-05 |
| C11A A42G | 0.000337 ± 5.9e-05 | 3420 ± 1100 | – | – | 4.77e-05 ± 1.4e-05 | 0.000184 ± 4.7e-05 | 0.000239 ± 5e-05 |
| A6C | 0.000141 ± 4.6e-06 | 2100 ± 180 | – | < 1e-05 | 3.13e-05 ± 1.1e-06 | 7.95e-05 ± 1.5e-06 | 0.000115 ± 1.8e-06 |
| A39C A42U | 0.000187 ± 4e-05 | – | – | – | – | 0.000135 ± 2.9e-05 | 0.000143 ± 2.2e-05 |
| A39G C58A | 0.00088 ± 0.00013 | 4140 ± 1100 | – | 4.38e-05 ± 1.9e-05 | 0.000129 ± 3e-05 | 0.000275 ± 6.4e-05 | 0.000642 ± 7.7e-05 |
